This note sets out measurements from IntAct's records for PubMed 31515488.

The labels stand for the following.
B1: Probable RNA-binding protein EIF1AD (Homo sapiens), Q8N9N8 (parent)
chain: MSQATKRKHVVKEVLGEHIVPSDQQQIVRVLRTPGNNLHEVETAQGQRFLVSMPSKYRKNIWIKRGDFLIVDPIEEGEKVKAEISFVLCKDHVRSLQKEGFWPEAFSEVAEKHNNRNRQTQPELPAEPQLSGEESSSEDDSDLFVNTNRRQYHESEEESEEEEAA
partner: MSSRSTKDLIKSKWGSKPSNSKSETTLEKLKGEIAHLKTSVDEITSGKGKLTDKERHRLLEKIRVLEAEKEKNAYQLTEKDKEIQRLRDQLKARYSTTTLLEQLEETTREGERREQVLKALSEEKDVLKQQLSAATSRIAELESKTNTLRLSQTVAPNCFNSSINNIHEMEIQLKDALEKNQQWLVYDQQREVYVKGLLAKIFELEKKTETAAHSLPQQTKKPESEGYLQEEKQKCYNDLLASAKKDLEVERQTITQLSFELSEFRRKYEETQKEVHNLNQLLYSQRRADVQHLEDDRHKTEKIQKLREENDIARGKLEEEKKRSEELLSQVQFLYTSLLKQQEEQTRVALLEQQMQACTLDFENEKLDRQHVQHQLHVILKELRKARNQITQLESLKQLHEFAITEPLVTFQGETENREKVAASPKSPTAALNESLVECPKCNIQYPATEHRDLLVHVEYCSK
B2: Alpha-ketoglutarate-dependent dioxygenase alkB homolog 4 (Homo sapiens), Q9NXW9 (parent)
chain: MAAAAAETPEVLRECGCKGIRTCLICERQRGSDPPWELPPAKTYRFIYCSDTGWAVGTEESDFEGWAFPFPGVMLIEDFVTREEEAELVRLMDRDPWKLSQSGRRKQDYGPKVNFRKQKLKTEGFCGLPSFSREVVRRMGLYPGLEGFRPVEQCNLDYCPERGSAIDPHLDDAWLWGERLVSLNLLSPTVLSMCREAPGSLLLCSAPSAAPEALVDSVIAPSRSVLCQEVEVAIPLPARSLLVLTGAARHQWKHAIHRRHIEARRVCVTFRELSAEFGPGGRQQELGQELLRIALSFQGRPV
partner: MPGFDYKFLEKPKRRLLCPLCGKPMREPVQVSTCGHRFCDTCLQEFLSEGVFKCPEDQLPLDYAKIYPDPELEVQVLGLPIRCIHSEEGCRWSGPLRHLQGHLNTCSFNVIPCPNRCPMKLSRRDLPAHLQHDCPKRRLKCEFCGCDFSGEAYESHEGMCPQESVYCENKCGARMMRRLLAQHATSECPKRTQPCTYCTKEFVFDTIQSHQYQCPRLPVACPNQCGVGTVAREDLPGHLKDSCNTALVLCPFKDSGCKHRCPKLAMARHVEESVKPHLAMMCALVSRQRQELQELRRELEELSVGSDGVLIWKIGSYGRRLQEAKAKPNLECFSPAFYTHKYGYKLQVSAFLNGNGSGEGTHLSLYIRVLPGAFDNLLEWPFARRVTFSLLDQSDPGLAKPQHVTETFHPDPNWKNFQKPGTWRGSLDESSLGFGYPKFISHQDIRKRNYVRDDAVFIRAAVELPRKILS
B3: Notch homolog 2 N-terminal-like protein A (Homo sapiens), Q7Z3S9 (parent)
chain: MCVTYHNGTGYCKCPEGFLGEYCQHRDPCEKNRCQNGGTCVAQAMLGKATCRCASGFTGEDCQYSTSHPCFVSRPCLNGGTCHMLSRDTYECTCQVGFTGKECQWTDACLSHPCANGSTCTTVANQFSCKCLTGFTGQKCETDVNECDIPGHCQHGGTCLNLPGSYQCQCLQGFTGQYCDSLYVPCAPSPCVNGGTCRQTGDFTFECNCLPETVRRGTELWERDREVWNGKEHDEN
partner: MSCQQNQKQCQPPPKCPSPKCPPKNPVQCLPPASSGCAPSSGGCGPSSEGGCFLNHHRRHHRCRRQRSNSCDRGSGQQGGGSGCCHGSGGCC
B4: Spermatogenic leucine zipper protein 1 (Homo sapiens), Q9BXG8 (parent)
chain: MASSAKSAEMPTISKTVNPTPDPHQEYLDPRITIALFEIGSHSPSSWGSLPFLKNSSHQVTEQQTAQKFNNLLKEIKDILKNMAGFEEKITEAKELFEETNITEDVSAHKENIRGLDKINEMLSTNLPVSLAPEKEDNEKKQEMILETNITEDVSAHKENIRGLDKINEMLSTNLPVSLAPEKEDNEKKQQMIMENQNSENTAQVFARDLVNRLEEKKVLNETQQSQEKAKNRLNVQEETMKIRNNMEQLLQEAEHWSKQHTELSKLIKSYQKSQKDISETLGNNGVGFQTQPNNEVSAKHELEEQVKKLSHDTYSLQLMAALLENECQILQQRVEILKELHHQKQGTLQEKPIQINYKQDKKNQKPSEAKKVEMYKQNKQAMKGTFWKKDRSCRSLDVCLNKKACNTQFNIHVARKALRGKMRSASSLR
partner: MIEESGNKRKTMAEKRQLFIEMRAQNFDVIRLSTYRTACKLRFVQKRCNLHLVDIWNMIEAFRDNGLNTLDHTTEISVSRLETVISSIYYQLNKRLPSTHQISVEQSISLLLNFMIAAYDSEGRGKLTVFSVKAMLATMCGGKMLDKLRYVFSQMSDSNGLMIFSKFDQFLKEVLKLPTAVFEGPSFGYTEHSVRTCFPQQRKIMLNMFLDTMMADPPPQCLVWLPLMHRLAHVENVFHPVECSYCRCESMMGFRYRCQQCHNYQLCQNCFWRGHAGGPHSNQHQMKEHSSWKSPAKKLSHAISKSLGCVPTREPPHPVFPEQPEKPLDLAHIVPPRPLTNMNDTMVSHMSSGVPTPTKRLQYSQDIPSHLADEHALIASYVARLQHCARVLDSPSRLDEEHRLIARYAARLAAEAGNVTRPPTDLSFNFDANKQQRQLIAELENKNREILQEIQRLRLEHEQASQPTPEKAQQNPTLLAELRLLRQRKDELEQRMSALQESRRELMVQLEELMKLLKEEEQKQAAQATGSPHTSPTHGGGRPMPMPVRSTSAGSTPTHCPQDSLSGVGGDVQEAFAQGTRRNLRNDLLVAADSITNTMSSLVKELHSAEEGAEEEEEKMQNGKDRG
B5: Homeobox protein VENTX (Homo sapiens), O95231 (parent)
chain: MRLSSSPPRGPQQLSSFGSVDWLSQSSCSGPTHTPRPADFSLGSLPGPGQTSGAREPPQAVSIKEAAGSSNLPAPERTMAGLSKEPNTLRAPRVRTAFTMEQVRTLEGVFQHHQYLSPLERKRLAREMQLSEVQIKTWFQNRRMKHKRQMQDPQLHSPFSGSLHAPPAFYSTSSGLANGLQLLCPWAPLSGPQALMLPPGSFWGLCQVAQEALASAGASCCGQPLASHPPTPGRPSLGPALSTGPRGLCAMPQTGDAF
B6: Probable RNA-binding protein EIF1AD (Homo sapiens), Q8N9N8 (parent)
chain: B1 chain
B7: Cyclin-D1-binding protein 1 (Homo sapiens), O95273 (parent)
chain: MASATAPAAAVPTLASPLEQLRHLAEELRLLLPRVRVGEAQETTEEFNREMFWRRLNEAAVTVSREATTLTIVFSQLPLPSPQETQKFCEQVHAAIKAFIAVYYLLPKDQGITLRKLVRGATLDIVDGMAQLMEVLSVTPTQSPENNDLISYNSVWVACQQMPQIPRDNKAAALLMLTKNVDFVKDAHEEMEQAVEECDPYSGLLNDTEENNSDNHNHEDDVLGFPSNQDLYWSEDDQELIIPCLALVRASKACLKKIRMLVAENGKKDQVAQLDDIVDISDEISPSVDDLALSIYPPMCHLTVRINSAKLVSVLKKALEITKASHVTPQPEDSWIPLLINAIDHCMNRIKELTQSELEL
partner: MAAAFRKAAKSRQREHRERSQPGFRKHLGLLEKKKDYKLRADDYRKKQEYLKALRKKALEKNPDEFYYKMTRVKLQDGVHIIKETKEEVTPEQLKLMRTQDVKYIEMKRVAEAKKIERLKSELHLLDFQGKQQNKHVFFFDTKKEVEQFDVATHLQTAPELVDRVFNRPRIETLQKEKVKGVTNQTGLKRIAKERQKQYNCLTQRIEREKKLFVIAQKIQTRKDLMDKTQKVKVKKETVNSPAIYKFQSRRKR

Variants of B1 are the subject of the first experiment. The settings on record: with cep55_human CEP55, Q53EZ4.
Turning to R48C, the “effect of a mutation on the interaction” value is “with no effect”.

Variants of B2 are the subject of another experiment. The settings on record: with traf4_human TRAF4, Q9BUZ4.
On to R239C, for which the “effect of a mutation on the interaction” value is “disrupting interaction strength”.

The variants in the next experiment derive from B3. The following applies: with lce3e_human LCE3E.
Take A115T: the “effect of a mutation on the interaction” value is reported as “with no effect”.

Consider R74Q, for which the “effect of a mutation on the interaction” value was “with no effect”.

Variants of B4 are the subject of the next experiment. The following applies: with dtnb_human DTNB.
Turning to E9K, the “effect of a mutation on the interaction” value is reported as “with no effect”.

Regarding H301P, the “effect of a mutation on the interaction” value was “with no effect”.

Variants of B5 are the subject of another experiment. The following applies: with rbpms_human RBPMS.
For A226E, the “effect of a mutation on the interaction” value is “with no effect”.

As for M251V, the “effect of a mutation on the interaction” value is reported as “with no effect”.

For the variant L42P, the “effect of a mutation on the interaction” value is “with no effect”.

The variants in a further experiment derive from B6. The following applies: with tbcd5_human TBC1D5, Q92609.
tbcd5_human TBC1D5, Q92609, sequence (Q92609 whole entry): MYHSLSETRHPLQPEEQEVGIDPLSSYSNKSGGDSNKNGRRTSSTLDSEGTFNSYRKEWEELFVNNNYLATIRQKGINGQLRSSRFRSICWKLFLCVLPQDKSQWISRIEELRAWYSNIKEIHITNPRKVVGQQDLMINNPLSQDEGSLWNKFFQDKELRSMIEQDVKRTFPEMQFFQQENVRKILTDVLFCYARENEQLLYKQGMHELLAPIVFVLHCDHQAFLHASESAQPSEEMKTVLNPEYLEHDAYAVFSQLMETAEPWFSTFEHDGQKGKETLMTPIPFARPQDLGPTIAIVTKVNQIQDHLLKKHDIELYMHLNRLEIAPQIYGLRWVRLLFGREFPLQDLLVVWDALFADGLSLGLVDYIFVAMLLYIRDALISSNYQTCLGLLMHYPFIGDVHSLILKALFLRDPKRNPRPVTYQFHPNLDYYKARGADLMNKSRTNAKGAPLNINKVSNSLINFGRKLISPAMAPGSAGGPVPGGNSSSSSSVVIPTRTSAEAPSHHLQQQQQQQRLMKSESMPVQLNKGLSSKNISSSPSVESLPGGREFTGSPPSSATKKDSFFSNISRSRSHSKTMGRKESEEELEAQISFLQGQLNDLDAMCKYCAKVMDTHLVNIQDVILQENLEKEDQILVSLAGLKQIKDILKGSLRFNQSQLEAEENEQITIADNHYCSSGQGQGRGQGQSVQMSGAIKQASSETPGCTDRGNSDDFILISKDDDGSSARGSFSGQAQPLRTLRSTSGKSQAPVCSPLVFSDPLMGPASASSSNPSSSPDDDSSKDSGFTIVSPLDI
As for R48C, the “effect of a mutation on the interaction” value is recorded as “with no effect”.

Variants of B7 are the subject of another experiment. The following applies: with utp11_human UTP11, Q9Y3A2.
I277T: the “effect of a mutation on the interaction” value is recorded as “disrupting interaction strength”.
